B1: THAP1; numbered along this chain (parent)
chain: MVQSCSAYGCKNRYDKDKPVSFHKFPLTRPSLCKEWEAAVRRKNFKPTKYSSICSEHFTPDCFKRECNNKLLKENAVPTIFLCTEPHDKKEDLLEPQEQLPPPPLPPPVSQVDAAIGLLMPPLQTPVNLSVFCDHNYTVEDTMHQRKRIHQLEQQVEKLRKKLKTAQQRCRRQERQLEKLKEVVHFQKEKDDVSERGYVILPNDYFEIVEVPA

Variants of: B1
Test: THAP1 transcriptional activity (GFP+/GFP- enrichment relative to wild-type constructs) (ratio to WT); higher = more THAP1 activity (PSMB5 reporter activation)
Conditions: with PSMB5 promoter-GFP reporter
Method in brief: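 Activity values are replicate-mean bright/dim read fold changes divided by the mean of wild-type synonymous constructs. They come from a human THAP1 site-saturation library (residues 2–213, each changed to all 20 amino acids) delivered by lentivirus at MOI ~0.3, in duplicate, into THAP1-knockout HEK-293T cells with mClover3 at endogenous PSMB5. BFP+ cells were sorted into GFP-dim and GFP-bright bins after five days, and variants were counted by Illumina sequencing of genomic DNA amplicons.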

| Variant | THAP1 transcriptional activity |
| --- | --- |
| MVQSCSAYGCKNRYDKDKPVSFHKFPLTRPSLCKEWEAAVRRKNFKPTKYSSICSEHFTPDCFKRECNNKLLKENAVPTIFLCTEPHDKKEDLLEPQEQLPPPPLPPPVSQVDAAIGLLMPPLQTPVNLSVFCDHNYTVEDTMHQRKRIHQLEQQVEKLRKSLKTAQQRCRRQERQLEKLKEVVHFQKEKDDVSERGYVILPNDYFEIVEVPA [K162S] | 0.461 |
| MVQSCSAYGCKNRYDKDKPVSFHKFPLTRPSLCKEWEAAVRRKNFKPTKYSSICSEHFTPDCFKRECNNKLLKENAVPTIFLCTEPHDKKEDLLEPQEQLPPPPLPPPVSQVDAAIGLLMPPLQTPVNLSVFCDHNYTVEDTMHQRKRIHQLEQQVEKLRKYLKTAQQRCRRQERQLEKLKEVVHFQKEKDDVSERGYVILPNDYFEIVEVPA [K162Y] | 0.188 |
| MVQSCSAYGCKNRYDKDKPVSFHKFPLTRPSLCKEWEAAVRRKNFKPTKYSSICSEHFTPDCFKRECNNKLLKENAVPTIFLCTEPHDKKEDLLEPQEQLPPPPLPPPVSQVDAAIGLLMPPLQTPVNLSVFCDHNYTVEDTMHQRKRIHQLEQQVEKLRKGLKTAQQRCRRQERQLEKLKEVVHFQKEKDDVSERGYVILPNDYFEIVEVPA [K162G] | 0.11 |
| MVQSCSAYGCKNRYDKDKPVSFHKFPLTRPSLCKEWEAAVRRKNFKPTKYSSICSEHFTPDCFKRECNNKLLKENAVPTIFLCTEPHDKKEDLLEPQEQLPPPPLPPPVSQVDAAIGLLMPPLQTPVNLSVFCDHNYTVEDTMHQRKRIHQLEQQVEKLRKPLKTAQQRCRRQERQLEKLKEVVHFQKEKDDVSERGYVILPNDYFEIVEVPA [K162P] | 0.15 |
| MVQSCSAYGCKNRYDKDKPVSFHKFPLTRPSLCKEWEAAVRRKNFKPTKYSSICSEHFTPDCFKRECNNKLLKENAVPTIFLCTEPHDKKEDLLEPQEQLPPPPLPPPVSQVDAAIGLLMPPLQTPVNLSVFCDHNYTVEDTMHQRKRIHQLEQQVEKLRKQLKTAQQRCRRQERQLEKLKEVVHFQKEKDDVSERGYVILPNDYFEIVEVPA [K162Q] | 0.612 |
| MVQSCSAYGCKNRYDKDKPVSFHKFPLTRPSLCKEWEAAVRRKNFKPTKYSSICSEHFTPDCFKRECNNKLLKENAVPTIFLCTEPHDKKEDLLEPQEQLPPPPLPPPVSQVDAAIGLLMPPLQTPVNLSVFCDHNYTVEDTMHQRKRIHQLEQQVEKLRKHLKTAQQRCRRQERQLEKLKEVVHFQKEKDDVSERGYVILPNDYFEIVEVPA [K162H] | 0.273 |
| MVQSCSAYGCKNRYDKDKPVSFHKFPLTRPSLCKEWEAAVRRKNFKPTKYSSICSEHFTPDCFKRECNNKLLKENAVPTIFLCTEPHDKKEDLLEPQEQLPPPPLPPPVSQVDAAIGLLMPPLQTPVNLSVFCDHNYTVEDTMHQRKRIHQLEQQVEKLRKNLKTAQQRCRRQERQLEKLKEVVHFQKEKDDVSERGYVILPNDYFEIVEVPA [K162N] | 0.185 |
| MVQSCSAYGCKNRYDKDKPVSFHKFPLTRPSLCKEWEAAVRRKNFKPTKYSSICSEHFTPDCFKRECNNKLLKENAVPTIFLCTEPHDKKEDLLEPQEQLPPPPLPPPVSQVDAAIGLLMPPLQTPVNLSVFCDHNYTVEDTMHQRKRIHQLEQQVEKLRKVLKTAQQRCRRQERQLEKLKEVVHFQKEKDDVSERGYVILPNDYFEIVEVPA [K162V] | 0.232 |
| MVQSCSAYGCKNRYDKDKPVSFHKFPLTRPSLCKEWEAAVRRKNFKPTKYSSICSEHFTPDCFKRECNNKLLKENAVPTIFLCTEPHDKKEDLLEPQEQLPPPPLPPPVSQVDAAIGLLMPPLQTPVNLSVFCDHNYTVEDTMHQRKRIHQLEQQVEKLRKMLKTAQQRCRRQERQLEKLKEVVHFQKEKDDVSERGYVILPNDYFEIVEVPA [K162M] | 0.318 |
| MVQSCSAYGCKNRYDKDKPVSFHKFPLTRPSLCKEWEAAVRRKNFKPTKYSSICSEHFTPDCFKRECNNKLLKENAVPTIFLCTEPHDKKEDLLEPQEQLPPPPLPPPVSQVDAAIGLLMPPLQTPVNLSVFCDHNYTVEDTMHQRKRIHQLEQQVEKLRKTLKTAQQRCRRQERQLEKLKEVVHFQKEKDDVSERGYVILPNDYFEIVEVPA [K162T] | 0.273 |
| MVQSCSAYGCKNRYDKDKPVSFHKFPLTRPSLCKEWEAAVRRKNFKPTKYSSICSEHFTPDCFKRECNNKLLKENAVPTIFLCTEPHDKKEDLLEPQEQLPPPPLPPPVSQVDAAIGLLMPPLQTPVNLSVFCDHNYTVEDTMHQRKRIHQLEQQVEKLRKWLKTAQQRCRRQERQLEKLKEVVHFQKEKDDVSERGYVILPNDYFEIVEVPA [K162W] | 0.206 |
| MVQSCSAYGCKNRYDKDKPVSFHKFPLTRPSLCKEWEAAVRRKNFKPTKYSSICSEHFTPDCFKRECNNKLLKENAVPTIFLCTEPHDKKEDLLEPQEQLPPPPLPPPVSQVDAAIGLLMPPLQTPVNLSVFCDHNYTVEDTMHQRKRIHQLEQQVEKLRKILKTAQQRCRRQERQLEKLKEVVHFQKEKDDVSERGYVILPNDYFEIVEVPA [K162I] | 0.164 |
| MVQSCSAYGCKNRYDKDKPVSFHKFPLTRPSLCKEWEAAVRRKNFKPTKYSSICSEHFTPDCFKRECNNKLLKENAVPTIFLCTEPHDKKEDLLEPQEQLPPPPLPPPVSQVDAAIGLLMPPLQTPVNLSVFCDHNYTVEDTMHQRKRIHQLEQQVEKLRKLLKTAQQRCRRQERQLEKLKEVVHFQKEKDDVSERGYVILPNDYFEIVEVPA [K162L] | 0.417 |
| MVQSCSAYGCKNRYDKDKPVSFHKFPLTRPSLCKEWEAAVRRKNFKPTKYSSICSEHFTPDCFKRECNNKLLKENAVPTIFLCTEPHDKKEDLLEPQEQLPPPPLPPPVSQVDAAIGLLMPPLQTPVNLSVFCDHNYTVEDTMHQRKRIHQLEQQVEKLRKKFKTAQQRCRRQERQLEKLKEVVHFQKEKDDVSERGYVILPNDYFEIVEVPA [L163F] | 0.23 |
| MVQSCSAYGCKNRYDKDKPVSFHKFPLTRPSLCKEWEAAVRRKNFKPTKYSSICSEHFTPDCFKRECNNKLLKENAVPTIFLCTEPHDKKEDLLEPQEQLPPPPLPPPVSQVDAAIGLLMPPLQTPVNLSVFCDHNYTVEDTMHQRKRIHQLEQQVEKLRKKAKTAQQRCRRQERQLEKLKEVVHFQKEKDDVSERGYVILPNDYFEIVEVPA [L163A] | 0.118 |
| MVQSCSAYGCKNRYDKDKPVSFHKFPLTRPSLCKEWEAAVRRKNFKPTKYSSICSEHFTPDCFKRECNNKLLKENAVPTIFLCTEPHDKKEDLLEPQEQLPPPPLPPPVSQVDAAIGLLMPPLQTPVNLSVFCDHNYTVEDTMHQRKRIHQLEQQVEKLRKKEKTAQQRCRRQERQLEKLKEVVHFQKEKDDVSERGYVILPNDYFEIVEVPA [L163E] | 0.196 |
| MVQSCSAYGCKNRYDKDKPVSFHKFPLTRPSLCKEWEAAVRRKNFKPTKYSSICSEHFTPDCFKRECNNKLLKENAVPTIFLCTEPHDKKEDLLEPQEQLPPPPLPPPVSQVDAAIGLLMPPLQTPVNLSVFCDHNYTVEDTMHQRKRIHQLEQQVEKLRKKHKTAQQRCRRQERQLEKLKEVVHFQKEKDDVSERGYVILPNDYFEIVEVPA [L163H] | 0.178 |
| MVQSCSAYGCKNRYDKDKPVSFHKFPLTRPSLCKEWEAAVRRKNFKPTKYSSICSEHFTPDCFKRECNNKLLKENAVPTIFLCTEPHDKKEDLLEPQEQLPPPPLPPPVSQVDAAIGLLMPPLQTPVNLSVFCDHNYTVEDTMHQRKRIHQLEQQVEKLRKKNKTAQQRCRRQERQLEKLKEVVHFQKEKDDVSERGYVILPNDYFEIVEVPA [L163N] | 0.134 |
| MVQSCSAYGCKNRYDKDKPVSFHKFPLTRPSLCKEWEAAVRRKNFKPTKYSSICSEHFTPDCFKRECNNKLLKENAVPTIFLCTEPHDKKEDLLEPQEQLPPPPLPPPVSQVDAAIGLLMPPLQTPVNLSVFCDHNYTVEDTMHQRKRIHQLEQQVEKLRKKCKTAQQRCRRQERQLEKLKEVVHFQKEKDDVSERGYVILPNDYFEIVEVPA [L163C] | 0.422 |
| MVQSCSAYGCKNRYDKDKPVSFHKFPLTRPSLCKEWEAAVRRKNFKPTKYSSICSEHFTPDCFKRECNNKLLKENAVPTIFLCTEPHDKKEDLLEPQEQLPPPPLPPPVSQVDAAIGLLMPPLQTPVNLSVFCDHNYTVEDTMHQRKRIHQLEQQVEKLRKKQKTAQQRCRRQERQLEKLKEVVHFQKEKDDVSERGYVILPNDYFEIVEVPA [L163Q] | 0.17 |
| MVQSCSAYGCKNRYDKDKPVSFHKFPLTRPSLCKEWEAAVRRKNFKPTKYSSICSEHFTPDCFKRECNNKLLKENAVPTIFLCTEPHDKKEDLLEPQEQLPPPPLPPPVSQVDAAIGLLMPPLQTPVNLSVFCDHNYTVEDTMHQRKRIHQLEQQVEKLRKKRKTAQQRCRRQERQLEKLKEVVHFQKEKDDVSERGYVILPNDYFEIVEVPA [L163R] | 0.163 |
| MVQSCSAYGCKNRYDKDKPVSFHKFPLTRPSLCKEWEAAVRRKNFKPTKYSSICSEHFTPDCFKRECNNKLLKENAVPTIFLCTEPHDKKEDLLEPQEQLPPPPLPPPVSQVDAAIGLLMPPLQTPVNLSVFCDHNYTVEDTMHQRKRIHQLEQQVEKLRKKPKTAQQRCRRQERQLEKLKEVVHFQKEKDDVSERGYVILPNDYFEIVEVPA [L163P] | 0.149 |
| MVQSCSAYGCKNRYDKDKPVSFHKFPLTRPSLCKEWEAAVRRKNFKPTKYSSICSEHFTPDCFKRECNNKLLKENAVPTIFLCTEPHDKKEDLLEPQEQLPPPPLPPPVSQVDAAIGLLMPPLQTPVNLSVFCDHNYTVEDTMHQRKRIHQLEQQVEKLRKKDKTAQQRCRRQERQLEKLKEVVHFQKEKDDVSERGYVILPNDYFEIVEVPA [L163D] | 0.0892 |
| MVQSCSAYGCKNRYDKDKPVSFHKFPLTRPSLCKEWEAAVRRKNFKPTKYSSICSEHFTPDCFKRECNNKLLKENAVPTIFLCTEPHDKKEDLLEPQEQLPPPPLPPPVSQVDAAIGLLMPPLQTPVNLSVFCDHNYTVEDTMHQRKRIHQLEQQVEKLRKKKKTAQQRCRRQERQLEKLKEVVHFQKEKDDVSERGYVILPNDYFEIVEVPA [L163K] | 0.168 |
| MVQSCSAYGCKNRYDKDKPVSFHKFPLTRPSLCKEWEAAVRRKNFKPTKYSSICSEHFTPDCFKRECNNKLLKENAVPTIFLCTEPHDKKEDLLEPQEQLPPPPLPPPVSQVDAAIGLLMPPLQTPVNLSVFCDHNYTVEDTMHQRKRIHQLEQQVEKLRKKIKTAQQRCRRQERQLEKLKEVVHFQKEKDDVSERGYVILPNDYFEIVEVPA [L163I] | 0.488 |
| MVQSCSAYGCKNRYDKDKPVSFHKFPLTRPSLCKEWEAAVRRKNFKPTKYSSICSEHFTPDCFKRECNNKLLKENAVPTIFLCTEPHDKKEDLLEPQEQLPPPPLPPPVSQVDAAIGLLMPPLQTPVNLSVFCDHNYTVEDTMHQRKRIHQLEQQVEKLRKKGKTAQQRCRRQERQLEKLKEVVHFQKEKDDVSERGYVILPNDYFEIVEVPA [L163G] | 0.179 |
| MVQSCSAYGCKNRYDKDKPVSFHKFPLTRPSLCKEWEAAVRRKNFKPTKYSSICSEHFTPDCFKRECNNKLLKENAVPTIFLCTEPHDKKEDLLEPQEQLPPPPLPPPVSQVDAAIGLLMPPLQTPVNLSVFCDHNYTVEDTMHQRKRIHQLEQQVEKLRKKTKTAQQRCRRQERQLEKLKEVVHFQKEKDDVSERGYVILPNDYFEIVEVPA [L163T] | 0.195 |
| MVQSCSAYGCKNRYDKDKPVSFHKFPLTRPSLCKEWEAAVRRKNFKPTKYSSICSEHFTPDCFKRECNNKLLKENAVPTIFLCTEPHDKKEDLLEPQEQLPPPPLPPPVSQVDAAIGLLMPPLQTPVNLSVFCDHNYTVEDTMHQRKRIHQLEQQVEKLRKKSKTAQQRCRRQERQLEKLKEVVHFQKEKDDVSERGYVILPNDYFEIVEVPA [L163S] | 0.142 |

— the supplement of paper PMC11811203
